Laboratory results taken from patent publication US20180327500A1 (SYMPHOGEN A S, published 2018).
Numbering of substitutions follows the chain as printed. Each block holds one binder with its values, some of them ahead of it.

Assays:
LS3 = molecular target: T1, LS3; test: flow cytometry on transfected HEK293 cells;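 note: antibodies applied at 50 µg/ml, binding called specific when fluorescence exceeds the mean signal on a negative control chicken or mouse MET construct plus four SD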
T1 construct: human/mouse chimera on transfected HEK293 cells; also called AA 25-312
Protocol: (§1) Cut-off values defined as the average fluorescence signal of all antibodies tested at 50 μg/ml to the negative control chicken or mouse MET construct+four standard deviations were employed to discriminate background binding from specific binding for the domain exchange or blade exchange constructs.
T1 MET ECD-SV5-GPI fusion: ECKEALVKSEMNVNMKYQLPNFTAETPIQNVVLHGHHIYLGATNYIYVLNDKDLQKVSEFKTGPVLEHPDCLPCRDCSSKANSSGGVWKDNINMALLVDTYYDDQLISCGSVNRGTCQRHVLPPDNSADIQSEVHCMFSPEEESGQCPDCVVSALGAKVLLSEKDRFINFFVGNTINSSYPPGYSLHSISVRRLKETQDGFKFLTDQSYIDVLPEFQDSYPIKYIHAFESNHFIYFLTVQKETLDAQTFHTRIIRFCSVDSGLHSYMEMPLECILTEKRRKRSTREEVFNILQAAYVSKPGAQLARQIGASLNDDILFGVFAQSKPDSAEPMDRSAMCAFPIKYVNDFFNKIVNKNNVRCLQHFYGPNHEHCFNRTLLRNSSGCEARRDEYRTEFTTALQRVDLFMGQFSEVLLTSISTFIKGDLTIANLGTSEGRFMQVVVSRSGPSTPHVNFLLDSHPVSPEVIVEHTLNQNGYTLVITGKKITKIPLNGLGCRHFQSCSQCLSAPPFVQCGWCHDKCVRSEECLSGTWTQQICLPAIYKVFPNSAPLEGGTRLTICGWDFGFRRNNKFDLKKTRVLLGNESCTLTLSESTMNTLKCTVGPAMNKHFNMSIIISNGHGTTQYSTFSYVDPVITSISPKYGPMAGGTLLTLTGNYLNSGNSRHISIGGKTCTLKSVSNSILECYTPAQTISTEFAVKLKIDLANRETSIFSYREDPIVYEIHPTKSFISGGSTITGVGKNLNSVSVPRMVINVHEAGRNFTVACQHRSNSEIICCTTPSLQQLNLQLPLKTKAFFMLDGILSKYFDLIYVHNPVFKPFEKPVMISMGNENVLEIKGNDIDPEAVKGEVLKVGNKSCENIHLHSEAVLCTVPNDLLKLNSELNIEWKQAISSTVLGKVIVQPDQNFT

LS2 = molecular target: T2, LS2; test: flow cytometry on transfected HEK293 cells;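 note: antibodies applied at 50 µg/ml, binding called specific when fluorescence exceeds the mean signal on a negative control chicken or mouse MET construct plus four SD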
T2 construct: human/mouse chimera on transfected HEK293 cells
Protocol: as §1
T2 MET ECD-SV5-GPI fusion: T1 MET ECD-SV5-GPI fusion with K202M, Q217R, I225V, H232N, K241R, V259I, D260N, R280K, R285K, E286K

Mouse Blade 1-7 = molecular target: T3, Mouse Blade 1-7; test: flow cytometry on transfected HEK293 cells;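 note: antibodies applied at 50 µg/ml, binding called specific when fluorescence exceeds the mean signal on a negative control chicken or mouse MET construct plus four SD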
T3 construct: human/mouse chimera on transfected HEK293 cells; also called AA 25-513
Protocol: as §1
T3 MET ECD-SV5-GPI fusion: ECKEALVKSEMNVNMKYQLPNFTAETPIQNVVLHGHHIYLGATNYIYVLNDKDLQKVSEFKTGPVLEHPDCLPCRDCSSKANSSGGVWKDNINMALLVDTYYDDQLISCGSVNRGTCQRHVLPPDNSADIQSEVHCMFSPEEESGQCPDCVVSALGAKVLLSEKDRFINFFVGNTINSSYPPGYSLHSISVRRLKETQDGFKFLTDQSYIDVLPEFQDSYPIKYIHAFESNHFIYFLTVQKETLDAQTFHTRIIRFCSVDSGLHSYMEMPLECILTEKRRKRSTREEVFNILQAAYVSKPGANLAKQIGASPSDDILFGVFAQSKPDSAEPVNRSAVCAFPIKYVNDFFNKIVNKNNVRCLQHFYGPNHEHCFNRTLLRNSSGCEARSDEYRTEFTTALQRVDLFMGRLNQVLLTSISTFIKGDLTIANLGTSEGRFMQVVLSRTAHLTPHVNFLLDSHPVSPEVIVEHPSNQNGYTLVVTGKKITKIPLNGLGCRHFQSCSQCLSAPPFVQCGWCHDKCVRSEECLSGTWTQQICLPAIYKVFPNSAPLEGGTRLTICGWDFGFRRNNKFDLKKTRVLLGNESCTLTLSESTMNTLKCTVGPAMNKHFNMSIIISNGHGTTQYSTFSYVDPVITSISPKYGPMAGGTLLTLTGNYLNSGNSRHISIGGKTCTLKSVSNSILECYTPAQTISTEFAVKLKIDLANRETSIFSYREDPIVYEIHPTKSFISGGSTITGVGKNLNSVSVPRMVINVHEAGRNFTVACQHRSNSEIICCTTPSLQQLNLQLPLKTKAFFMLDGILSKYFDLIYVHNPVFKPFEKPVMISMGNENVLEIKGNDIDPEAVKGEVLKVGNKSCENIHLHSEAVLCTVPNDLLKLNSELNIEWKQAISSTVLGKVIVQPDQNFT

[1] = molecular target: T4, His tagged cynomolgus MET ECD (Sinobiological) (cynomolgus); test: SPR (Bio-Rad XPR-36); antibody captured on anti-human IgG Fc surface, MET ECD 25 to 1.56 nM, 1:1 Langmuir fit
T4 construct: extracellular domain; Bought monovalent antigen
Protocol: His tagged human or cynomolgus MET ECD antigens were purchased from Sinobiological, China. […] Measurements were conducted with a plate rotation speed of 1000 rpm and sensors were regenerated and reused by brief 5 second alternations between exposure to 10 mM Glycine:HCl buffer (pH 1.5) or PBS buffer containing 1% BSA and 0.001% Tween 20 three times. For the Surface Plasmon Resonance experiments conducted on the Bio-Rad XPR-36 instrument, anti-MET antibodies were adjusted to a concentration of 0.25-0.5 μg/ml and captured on anti-human IgG Fc surfaces generated by immobilizing a monoclonal anti-human Fc antibody (Biacore, Denmark). […] The recorded binding responses were fitted to a simple Langmuir 1:1 binding model for calculation of the on-rate (kon or ka), off-rate (koff or kd) and affinity (KD) constants using double referencing.

binding result (LS3): no binding (tested: 50 µg/ml) | binding result (LS2): no binding (tested: 50 µg/ml) | binding result (Mouse Blade 1-7): no binding (tested: 50 µg/ml) | Kd [1]: 0.086 nM | koff [1]: 1.6e-05 s⁻¹ | kon [1]: 180000 M⁻¹ s⁻¹
B1: humanized antibody 9006 (antibody, human IgG1, kappa, V domains shown)
VH: QVQLVQSGSELKKPGASVKVSCKASGYTFTNFRMNWVKQAPGQGLKWMGWINTYTGEPTYVDDLKGRFVFSLDTSVSTAYLQISSLKAEDTAVYYCARKGIARAMDYWGQGTTVTVSS
VL: DIVMTQSPDSLAVSLGERATINCKSSQSLLDSGNQKNYLAWYQQKPGQPPKLLIFGASTRESGVPDRFSGSGSGTDFTLTISSLQAEDVAVYYCQNDHSYPYTFGQGTKLEIKR
notes: also called Hu9006; hu9006

binding result (LS3): no binding (tested: 50 µg/ml) | binding result (LS2): no binding (tested: 50 µg/ml) | binding result (Mouse Blade 1-7): no binding (tested: 50 µg/ml) | Kd [1]: 0.074 nM | koff [1]: 5.4e-05 s⁻¹ | kon [1]: 740000 M⁻¹ s⁻¹
B2: humanized antibody 9338 (antibody, human IgG1, kappa, V domains shown)
VH: QVQLVQSGAEVKKPGSSVKVSCKASGYTFTSYWMHWVRQAPGQGLEWMGYINPSSGHIENNQKFKDRVTITADKSTSTAYMELSSLRSEDTAVYYCARGRFAYWGQGTLVTVSS
VL: EIVLTQSPATLSLSPGERATLSCSASSSVSSGYLYWYQQKPGQAPRLLIYSTSNLASGIPARFSGSGSGTDFTLTISSLEPEDFAVYYCHQWSSYPFTFGSGTKLEIKR
notes: also called Hu9338; hu9338
